From the supplement of paper PMC10567573

B1: TBX6 (parent)
chain: AFLELPHGSGGSGYPAAPPAVPFA
B2: RAD51 (parent)
chain: RFLRMLLRLADEFGVAVVITNQVV

Variants of: B1
Experiment: protein stability index of a GFP-peptide fusion (GPS, HEK-293T) (PSI 1-6); higher = more stable
Conditions: c terminus: a fixed tail appended
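Further: lentivirally expressed fusions sorted by FACS into six bins by GFP to DsRed ratio, PSI derived from sequencing read proportions per bin multiplied by bin number.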

Protein stability index, by site and new letter:
P22: K 2.19; R 2.3; Q 2.52; T 1.86; N 1.89; W 2.25; I 1.73; Y 2.02; L 1.4; G 2.42; C 2.1; F 2.13; A 2.14; E 2.54; S 2.18; M 2.02; V 2.16; H 2.46; D 3.29
A24: F 1.54; N 2.68; V 2.47; R 2.54; H 1.92; T 2.55; Q 2.71; L 1.6; K 2.55; S 2.63; M 2.19; D 3.33; I 2.23; C 1.53; E 3.4; G 2.56; Y 1.89; W 1.67
G13: D 3.02; E 2.61; R 2.22; Q 2.89; S 2.44; C 2.83; Y 1.66; T 2.52; L 1.83; F 2.21; N 2.4; H 2.23; K 2.58; W 1.73; I 2.51; V 2.42; M 2.07; A 2.87
F23: I 2.52; L 2.35; S 3.21; E 3.56; Q 3.7; K 3.38; N 3.76; T 3; C 3.36; W 2.18; V 2.89; D 4.19; H 3.05; R 3.3; M 2.62; A 3.48; Y 2.42; G 3.72
V21: G 3.31; L 2.58; R 2.64; F 1.97; N 2.64; C 2.09; S 2.59; Y 2.12; W 2.07; D 3.46; M 2.36; E 3.02; K 3.23
S12: E 2.74; T 2.4; N 2.62; A 2.33; V 2.55; C 2.12; H 2.22; Y 1.63; D 3; Q 2.29; K 2.17; M 2; W 2.55; P 2.08; L 2.18; R 2.27; I 2.28; G 2.31; F 1.91
P18: A 1.94; H 2.23; Y 2.06; E 3.32; K 2.4; S 2.55; T 2.41; M 2.56; I 2.29; V 2.01; Q 2.22; N 2.19; W 2.03; R 2.17; C 2.4; F 1.96; L 2.44; G 2.39; D 2.61
P19: W 2.83; V 2.13; H 2.23; T 2.37; C 2.05; I 2.27; E 2.78; M 2.19; D 2.56; Y 1.48; A 2.72; S 2.13; K 2.07; R 2.17; F 1.59; L 2.25; N 2.06; G 2.38; Q 2.47
P15: Y 2.23; D 2.81; W 1.99; T 2.56; V 2.08; A 2.27; F 1.54; G 2.21; N 2.48; L 1.94; K 2.15; S 2.38; E 3.03; Q 2.01; R 1.88; M 1.77; H 1.93; I 2.01; C 1.8
G11: T 2.11; S 2.7; Y 1.95; V 2.12; W 2.32
A16: Y 2.46; W 1.94; H 2.21; M 2.17; N 2.43; F 2.18; D 2.09; V 2.19; K 2.99; E 3.49; T 2.63; C 1.61; I 2.24; R 2.29; S 2.22; Q 2.77; L 2.32; G 2.09
Y14: N 3.54; F 2.77; S 3.25; H 2.5; V 2.73; C 2.99; T 3.48; Q 3.06; K 2.78; R 3.03; G 3.04; L 2.85; A 3.1; D 3.33; M 2.84; I 2.65; E 3.8; W 2.21
A20: H 2.38; V 1.84; C 2.68; L 2.21; S 2.52; K 2.85; W 2.46; D 3.49; Q 2.99; N 2.69; F 2.4; Y 2.03; G 2.73; I 2.11; T 2.42; M 2.35; R 2.56; E 2.87
A17: K 2.4; R 2.37; N 2.22; Q 2.54; Y 2.36; I 2.65; W 2.02; E 2.97; G 2.03; D 2.85; C 2.61; T 2.58; S 2.46; V 2.62; F 1.99; L 2.57; M 2.17

Variants of: B2
Experiment: as above
Conditions: c terminus: a fixed tail appended

Protein stability index, by site and new letter:
R1: E 2.06; D 2; F 1.92; V 1.52; K 2.54; G 2.51; L 2.12; W 3; Y 2.8; I 2.9; M 2.43; N 2.71; S 2.27; A 1.62; Q 1.79; C 2.23; T 1.37; H 1.78; P 2.08
R4: V 1.91; C 2.77; D 1.96; S 3.21; T 2.42; A 2.24; W 1.77; M 1.97; N 3.36; Y 2.93; E 1.23; F 2.58; Q 1.92; H 2.49; I 2.45; P 2.39; K 2.82
M5: K 4.13; A 3.9; I 2.23; D 2.28; R 1.83; L 2.13; T 3.18; Y 2.57; F 2.15; Q 2.11; H 3.79; S 2.93; C 3.05; E 2.43; N 1.93
F2: W 1.88; I 2.4; R 1.7; N 2.1; M 2.29; G 1.75; Q 2.22; S 1.91; E 1.51; V 1.59; P 2.89; A 1.89; D 2.27; T 3.18; K 1.39; H 1.78; L 1.6; C 1.75; Y 2.21
L6: F 3.14; N 2.75; M 2.02; H 1.55; G 2.56; K 1.96; A 1.91; C 2.78; P 3.81
L3: N 3.69; E 3.2; K 2.6; H 2.75; C 1.78; Y 2.14; Q 1.78; V 3.98; M 2.19; W 2.03; G 2.62; A 4.15; S 3.09; I 1.35; R 1.17; T 3.74; D 2.04
